How the values were obtained:
Assay in all cases: SPR
CH31 (mature) = settings: antibody concentrations 0.98 nM-1,000 nM; parent: <1
VRC01 (germline) = settings: antibody concentrations 0.98 nM-1,000 nM; parent: N/A
VRC01 (mature) = settings: antibody concentrations 0.98 nM-1,000 nM; parent: <10
CH31 (germline) = settings: antibody concentrations 0.98 nM-1,000 nM; parent: N/A
eOD-GT8 = target: eOD-GT8

Row | Kd (eOD-GT8) | Substance | Kd (CH31 (mature)) | Kd (VRC01 (germline)) | Kd (VRC01 (mature)) | Kd (CH31 (germline))
1 |  | BG505 SOSIP trimer (fully glycosylated) (from UniProt Q2N0S6) | 0.00014 µM | 0.67 µM | < 0.0001 µM | 4 µM
2 | 11.9 µM | gl-CH31 |  |  |  | 
